Test results reported in patent publication USRE45968 (SIGMA TAU INDUSTRIE FARMACEUTICHE RIUNITE S PA, dated 2016).
Changes are numbered by the printed parent chain.

T1: Human CEA protein, purified from colon carcinoma and liver metastases (human, UniProt P06731 35-685, limits assumed)
T1 construct: Bought; Biotinylated for the selections; also called carcino-embryonic antigen
T1 sequence (looked up): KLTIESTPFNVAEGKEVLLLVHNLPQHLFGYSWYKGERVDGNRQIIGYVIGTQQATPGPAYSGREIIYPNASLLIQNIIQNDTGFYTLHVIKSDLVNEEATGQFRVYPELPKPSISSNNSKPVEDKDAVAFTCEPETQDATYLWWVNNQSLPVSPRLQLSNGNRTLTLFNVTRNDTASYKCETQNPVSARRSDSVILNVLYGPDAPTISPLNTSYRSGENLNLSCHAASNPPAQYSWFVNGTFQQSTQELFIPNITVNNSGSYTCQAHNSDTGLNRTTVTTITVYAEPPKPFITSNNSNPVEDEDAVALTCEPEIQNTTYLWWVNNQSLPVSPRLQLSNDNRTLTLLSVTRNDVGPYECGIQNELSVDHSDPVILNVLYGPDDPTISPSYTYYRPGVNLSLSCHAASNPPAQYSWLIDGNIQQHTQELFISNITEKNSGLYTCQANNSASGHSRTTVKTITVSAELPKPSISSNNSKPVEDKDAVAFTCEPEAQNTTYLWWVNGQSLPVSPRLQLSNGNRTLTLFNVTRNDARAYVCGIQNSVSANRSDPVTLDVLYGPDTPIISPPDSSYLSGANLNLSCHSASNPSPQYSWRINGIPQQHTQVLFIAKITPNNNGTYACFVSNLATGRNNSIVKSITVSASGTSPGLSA

B1: MB5/C′1 scFv antibody, soluble form (scFv)
scFv: RTMEEVQLQESGAEVKKPGASVKVSCKASGYTFTASYMHWVRQAPGQGLEWMGWFNPNSGGTNYAQKFQGRVTMTGDTSTSTGYMELSRLTSDDAAVYYCARDRASAMGVWGQGTLVTVSSGGGGSGGGGSGGGGSQSALTQPASVSGSPGQSITISCTGTSSDVGGYNYVSWYQQHPGKAPKLMIYDVSHRPSGISNRFSGSKSGNTASLTISRLQAEDEADYYCSSYTSSNTFIFGTGTQLTVLGAA
notes: domain: first two amino acids of the mature AP protein; cloned in pKM16 and produced in soluble form; also called MBB5/C′1; not shown: FLAG/His-tail at the carboxyl-terminus (pKM16)
B2: MB5/C′3 scFv antibody, soluble form (scFv)
scFv: RTMEQVQLVQSGAEVKKPGASVKVSCKASGYTFTASYMHWVRQAPGQGLEWMGWFNPNSGGTNYAQKFQGRVTMTGDTSTSTGYMELSRLTSDDAAVYYCARDRASAMGVWGQGTLVTVSSGGGGSGGGGSGGGGSQSALTQPASVSGSPGQSITISCTGTSSDVGGYNYVSWYQQHPGKAPKLMIYDVTNRPSGVSSRFSGSKSGNTASLTISGLQTEDEADYYCNSFTSSNTYVFGTGTQLTVLGAA
notes: domain: first two amino acids of the mature AP protein; cloned in pKM16 and produced in soluble form; not shown: FLAG/His-tail at the carboxyl-terminus (pKM16)
B3: CB37/3B scFv antibody, soluble form (scFv)
scFv: RTMEEVQLVQSGGGLIQPGGSLRLSCVASEFNVRSNYMSWVRQAPGKGLEWVSVMYDGGSTYYADSVKGRFTISRDNSKNTVYLQMNSLRAEDTAVYYCARGGLGLPTIAPWEIWGQGTMVTVSSGGGGSGGGGSGGGGSSYVLTQPPSVSVAPGKTATITCAGNNIGSNSVYWYQQKPGLAPVLVVYDDRDRPSGIHERFSGSKSGNTATLTISRVEAGDEADYSCQVWDPSSDHLYVFGTGTQLTVLGAA
notes: domain: first two amino acids of the mature AP protein; not shown: FLAG/His-tail at the carboxyl-terminus (pKM16)
B4: CB37/9C scFv antibody, soluble form (scFv)
scFv: B3 scFv with P111S, I197L, H198P, E199G
notes: as for B2

Columns and labels:
[1] = target: T2, GST-fused MUC1 recombinant protein, containing a 107-aa MUC1 sequence, containing 5.3 repeats (UniProt P08515 1-218 = GST; P15941 126-232); assay: Surface Plasmon Resonance (Biacore), soluble scFv
T2 construct: Biotinylated for the selections; also called Recombinant MUC1 protein; MUC1 tumor antigen

[2] = target: T1, Human CEA protein, purified from colon …; assay: Surface Plasmon Resonance (Biacore), soluble scFv

Binder | Kd [1] [nM] | Kd [2] [nM]
B1 | 9.46 | 
B2 | 23.1 | 
B3 |  | 3.66
B4 |  | 1.42
